Results: article PMC5052687

Molecular target: human CD36 ectodomain (residues 35-439), C-terminal 8xHis and biotinylated BAP tag (human) (UniProt P16671)
Experiment: SPR; biotinylated CD36 (wild type or F153A) immobilised on a CAPture chip to ~700 RU; CIDRα domains as analytes, two-fold dilutions from 400 nM (Supplementary Figure 10: 400 nM only), 240 s injection, 300 s dissociation; 25 °C, 20 mM HEPES pH 7.5, 0.15 M NaCl, 0.005% Tween20; affinities from equilibrium binding, one site-binding model

Chain of human CD36 ectodomain (residues 35-439), C-terminal 8xHis and biotinylated BAP tag (human) (P16671 35-439): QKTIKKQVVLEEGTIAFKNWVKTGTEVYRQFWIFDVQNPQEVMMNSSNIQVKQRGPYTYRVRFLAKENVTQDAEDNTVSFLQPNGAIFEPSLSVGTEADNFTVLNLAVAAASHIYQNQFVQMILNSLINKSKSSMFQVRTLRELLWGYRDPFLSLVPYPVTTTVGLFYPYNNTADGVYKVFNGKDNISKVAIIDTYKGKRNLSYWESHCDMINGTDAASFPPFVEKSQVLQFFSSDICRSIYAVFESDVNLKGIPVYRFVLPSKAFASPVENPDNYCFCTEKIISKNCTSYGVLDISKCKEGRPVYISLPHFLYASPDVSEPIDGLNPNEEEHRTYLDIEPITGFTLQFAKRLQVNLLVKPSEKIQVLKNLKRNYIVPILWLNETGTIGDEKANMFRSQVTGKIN

Substance: IT4var26 CIDRα3.3 domain (domain or fragment)
- Kd: 9.6 nM
